Assay: soluble on expression in E. coli; label from the status in PepcDB or PDB records

Sequence	soluble on expression in E. coli
MSLKSLEGSWCLVLGASSGIGRAIALGLAREGVHVAGVHFDTAARAEEVEALVEEIRSLGVEARFFNTNAASKATRAELVPQLAELTGANGGIRILVHSLAFGTLVPFTPREGWDRPISVRQLEMTLDVMAHSLVYWTQDLLAAGLLRSGSKVYAMTSAGTSQHLPSYGAVSAAKSALESHVRQLAAELATSGIAVNALRAGTTVTPALQRIPEHAGYIERAAENNPHGRLTRPDDVADAVALLSRTESSWLTGNTIGIDGGELHEGHHHHHH	soluble
MGSDKIHHHHHHMFNAQYFRTFITLVETGSFTHTARKLEMTQPGVSQHIRKLERYLDKSLLYRHGRRFTLTETGRRAYDYAVKLFAEHEQFRHSLDNDSPDTGECRVASPSSVGLMFYPFILGYQQMHPGLTVTYDFAFNAEIVDAVLAGRFDVGIVTDVTKHPDLDFEPWHQEPLCLLVPADFTGTTISELMALGFMNYSDGINNASSLLRRNFAGEFRSMSHFPQQGFSNEVSMVLDAVARGLGFTVVPRSVMETSPWQRQVKELPLAESVYETLYVVTKRGVEMPRRYQQLLGEFRLQRRNVLYGYAEAPPLEDEA	not soluble
MLKQPIQAQQLIELLKVHYGIDIHTAQFIQGGADTNAFAYQADSESKSYFIKLKYGYHDEINLSIIRLLHDSGIKEIIFPIHTLEAKLFQQLKHFKIIAYPFIHAPNGFTQNLTGKQWKQLGKVLRQIHETSVPISIQQQLRKEIYSPKWREIVRSFYNQIEFDNSDDKLTAAFKSFFNQNSAAIHRLVDTSEKLSKKIQPDLDKYVLCHSDIHAGNVLVGNEESIYIIDWDEPMLAPKERDLMFIGGGVGNVWNKPHEIQYFYEGYGEINVDKTILSYYRHERIVEDIAVYGQDLLSRNQNNQSRLESFKYFKEMFDPNNVVEIAFATEQLEHHHHHH	soluble
EVSTTQNDTLKVMTHNVYMLSTNLYPNWGQTERADLIGAADYIKNQDVVILNEVFDNSASDRLLGNLKKEYPNQTAVLGRSSGSEWDKTLGNYSSSTPEDGGVAIVSKWPIAEKIQYVFAKGCGPDNLSNKGFVYTKIKKNDRFVHVIGTHLQAEDSMCGKTSPASVRTNQLKEIQDFIKNKNIPNNEYVLIGGDMNVNKINAENNNDSEYASMFKTLNASVPSYTGHTATWDATTNSIAKYNFPDSPAEYLDYIIASKDHANPSYIENKVLQPKSPQWTVTSWFQKYTYNDYSDHYPVEATISMK	soluble
LKFPKVAVVGSRACSKQGAKSVEKVIQGLENELVIVSGLAKGIDTAAHMAALQNGGKTIAVIGTGLDVFYPKANKRLQDYIGNDHLVLSEYGPGEQPLKFHFPARNRIIAGLCRGVIVAEAKMRSGSLITCERAMEEGRDVFAIPGSILDGLSDGCHHLIQEGAKLVTSGQDVLAEFEF	not soluble
NHVRRVQELSKFFAEEMGLDEDLVHKIYLYAPLHDIGKIKVPKEILNKKGKLTAEEWEIMKKHTIWGGELLSGRKELEVARNIALYHHESYDGTGYPFGLKDDEIPIEAQIVKIVDVYDAL	not soluble
MPMNTSKQSNTVKQLITSLDNFEPSRLTIKDFQEGKGVGPKMAFLRYNHPSLGEDTSLMLQTPWITLTSGGIPRYNEQYHKNDKDRAYLRLPLEEGTDFFNKITALDEQFSSDEFKKEKFGKLYKKYSMYPCVKITEQEEGDTRDPLPPSLKLRFSLVWNEEDKDACEINTQVFTSKMEDGKRTRTPVPVSSLKDMESLVRLGAKLRLIVRPVSAWMNPKKEYGIKWKIQKMEVEPSTAGNALMKEFYETDAFIDSDDEEDVELPPSATGKKTSTKTTKEDDEDEDDDDDDDDDDVGEKSEDSDEASDEESDEESDEDSEEDSPDIPVRKSKGKGKSKGLDL	not soluble
MGSDKIHHHHHHMTVNDKKRLAIIGGGPGGLAAARVFSQSLPNFEIEIFVKDYDIGGVWHYPEQKSDGRVMYDHLETNISKKLMQFSGFPFEENVPLYPSRRNIWEYLKAYYKTFIANKDAISIHFSTEVTYLKKKNSQWEITSKDELRTTKSDFDFVIVASGHYSVPKLPTNIAGLDLWFDNKGAFHSKDFKNCEFAREKVVIVVGNGSSGQDIANQLTTVAKKVYNSIKEPASNQLKAKLIETVQTIDSADWKNRSVTLSDGRVLQNIDYIIFATGYYYSFPFIEPSVRLEVLGEGVTGDKHSSVNLHNLWEHMIYVKDPTLSFILTPQLVIPFPLSELQAAIMVEVFCKSLPITTTFDSNACGTHNFPKERTWNTMQNYRNY	not soluble
MNIVCIDTCFSSVAITAQGNAGTFTSVFTPAKARHSAILIPAIETAVKQAGFSINETDVLVCPQGPGGFTGLRLAYSTAKAIQLQTNARFFCVSILEALCSKYGDKNQFLSVIDAKRDCFYVQAFENKKPISEAFDIRAEDALKLIDKNKKTIICGFGTEKFNEEAGASIESNNITLIEADKETLSKTLLDCFLTNKNCKKVEDHEGPVYIRKSDAEY	not soluble
MGSDKIHHHHHHMSNTDKYYRDRSHITGKLDLQKLPKAIREKQYGIDVREAMAQTAEAIAGVQSTAQKFNQDTKNQVNQLDEKYTREIRAIVLGDTTSVATPPIQEPNSEASNPLSNLYETARGQVLYDFVKQSSLTKVSKIGVIGDSVAATAGGFPDILAHQYNIYVENLSVGGAKMSDYNHDAIVNQASRLQQCDVVIIQGTDDDWVHDISLGYAGDTNIKTYLGGLRETIKRVKNNNPKAKLIVVNCTRQCVDVHGKYRTEQSKNTFGLTLIDYMEAQKKYLNQQDVPYVDLMKPTSIFEPDNPAFKKTMMHDGLHPTPEAHQYIVQEIAKDYSYYYDK	not soluble
MGSSHHHHHHGGTGENLYFQGGSGRPAGTLASFLERCSARKRGRGCVVLTGAGCSTESGIPDYRGPNGQYHRADFVLLTFQKFMRDDNEKRRYWARSMLGYSTMCGASCNAAHMALQAFTKSGAVAHILTQNVDGLHHLATYGGVGDAEEEHYYKYTTSDAPLKELHGNIHNVICTSCGFFMPRARLQRELRERNPGFYEQYGADVSRTRPDGDYSAPTEAVNAMHLVMCPRCNGFFKPHVVLFGENVPKPIVEATMSLVRDKASCLLCLGTSLQVYSAYRYVLQANQLGIPVAIVNAGTTRGDAIADLKLDVESVGSVLAETAHEMLGVPASMFFRRKTIQL	not soluble
MGSDKIHHHHHHMLLEKLNWRYAAKKMDPAKVVSEDKVERIVEAARLAPTSSGLQPFEIIVVTNAEVREKIKAIGWNQSPITDGSHLLVFAAWDNYTAERINHMFDLVNEVRGFRNEGWENYRQMLLSAYPQRDPETNFEHAARQAYIAFGLALAQAAFEGVDATPMEGFDPKALDEILGLRERGLRSVTIAPLGYRQVEGDWLVNLQKVRRPRDQFVTEVK	not soluble
MSWQEKINAALDARRAADALRRRYPVAQGAGRWLVADDRQYLNFSSNDYLGLSHHPQIIRAWQQGAEQFGIGSGGSGHVSGYSVVHQALEEELAEWLGYSRALLFISGFAANQAVIAAMMAKEDRIAADRLSHASLLEAASLSPSQLRRFAHNDVTHLARLLASPCPGQQMVVTEGVFSMDGDSAPLAEIQQVTQQHNGWLMVDDAHGTGVIGEQGRGSCWLQKVKPELLVVTFGKGFGVSGAAVLCSSTVADYLLQFARHLIYSTSMPPAQAQALRASLAVIRSDEGDARREKLAALITRFRAGVQDLPFTLADSCSAIQPLIVGDNSRALQLAEKLRQQGCWVTAIRPPTVPAGTARLRLTLTAAHEMQDIDRLLEVLHGNG	soluble
MSLRKVFEESKIGNIKLKNRILRSATHESMADSEGKPTEDLIKKYMELAQGEVGAIITGYTGVMQNGKSPAKNMLMLDKDENITSFKNMVNEIHKYDVPIILQIAHCGRQTSEKVTGKPTVAPSPIRDKIYRGSVPHELTDVAINEIIEAFVNAIERAIKAGFDGVELHLAHGYLLSSFLSPHMNKRKDKWGGSTENRFRIVSEIMKRARQKFKNYPILAKINGYEASKDGIKLEEAIKISKALENSGINAIEVSCGIAEEGFVTIRGKVPFDMILKCDPTMKRIPEFLKPIVKHVGKLIVKSPEPHFLYNLNNAREIKNKVTIPVIVVGGIRKFSDIEDIIAKDCDFVSMSRPFIIQPSIVKTFKEGKEKESRCINCNYCLIGVETNELKCYYGKEGHHHHHH	soluble
MGSDKIHHHHHHMEMFAQFSVEGQRMYGMLHTPDGSATGQQAPPQGWPSVVIVHGFTGDKVSSHRLLVLLARRLTAAGIAALRFDCRGSGESQGDFSEMTVGREVQDVEAAFDYVRHQPGLDPERVMLLGYSMGGLVSALAAEKVRPHRFALWSPALPELWLRHLRGGLLPPVISDYGGWPLGRAFLQEVVQTRPLEAAARWGGVAHVFHGDRDQTCPVEWGVRTPKPCAATPPRFPARGTRMTRSNR	not soluble
MDIMQGPSESFVDFANRLIKAVEGSDLPPSARAPVIIDCFRQKSQPDIQQLIRTAPSTLTTPGEIIKYVLDRQKTAPLTDQGIAAAMSSAIQPLIM	soluble
MSLRILVNGLLPLDSGKTTFSLSIIRLFNQVGIRLFPFKPIAGHNAWYSFNTLIRSEELGILVGNDALKYYDETKYDIRRINPFAVLFVPIDLEKISYNVSLYNMIMEYGFPYLIRLSDCINGTDQYFVNSSADIYVPKSMLKFTRNLALKFNAKLYDKMREIIDASPQLVDNCTIDVFRNYENVIIESYNDSASPTYNSTNVDYVFTVSPTKAFLIKGQEFKKALSLFSIPPWNVRVSTLMKYLKIGKSFEIDVGERVAKDEILDILLKSEGHHHHHH	not soluble
DHAAPLIFLIAGTGAPYNSTINEFLKKLYYGAGYHVVQLSSPTSYDFMSSASRFATPGVSTEDAEDLYRVMQAIRAQQAQLPVTDYYLTGYSLGALNAAFVSKLDETRRSFNFKKVLLLNPPVNLYTSISNLDKLVQTNVKGINNTTTFYELVLAKLTRYFRQKGYIDLNDALLFDFQQSKQHLTNEQMAMLIGTSFRFSSADIAFTSDLINRRGLIIPPKFPISEGTSLTPFLKRALQCDFDCYLTEQVIPMWRARTDGGSLLQLVDQVSLYALKDYLHSNTKIAVMHNADDVILGAGDLGFLRKTFGDRLTVYPYGGHCGNLNYRVNTDAMLEFFRG	not soluble
MGNCLSTSDPSHEDVSKKLPKALPVDAAFKFPSPLPTFTRGDGFAKGTIDLGGGLEVSQVSTFNKVWSTYEGGPDNLGATFFEPSSIPSGFSILGYYAQPNNRNLFGWVLTARDLSSNTLKPPVDYTLVGNTESLKIKQDGTGYFWQPVPPDGYQAVGLIVTNYSQKPPLDKLRCIRSDLTEQCEADTWIWGTNGVNISNLKPTTRGTQATGVYVGTFTWQTQNSSPPSLSCLKNTKLDFSTMPNGSQIEELFQTFSPCIYFHPDEEYLPSSVTWYFNNGALLYKKGEESKPIPIESNGSNLPQGGSNDGSYWLDLPIDKNGKERVKKGDLQSTKVYLHIKPMLGATFTDISIWIFYPFNGPAKAKVKFVNLPLGRIGEHIGDWEHTTLRISNFTGELWRVFLSQHSGGIWIDACDLEFQDGGNNKFVAYASLHGHAMYPKPGLVLQGDDGVGIRNDTGKGKKVLDTGLGYEVIAAEYDGGGVVEPPWVKYFRKWGPKIDYNVDDEVKSVERILPGLLKKAFVKFVKKIPDEVYGEDGPTGPKLKSNWAGDES	not soluble
MNKKEIFKLAKGFRGRAKNCIRIARERVEKALQYSYRDRRNKKREMRGLWIERINAGSRQHGVNYGNFIHGLMKENIQLNRKVLSELSMHEPYSFKALVDVSRKSFPGNKNVVQASRKVDISSINA	soluble
MLQNPPRITSTASIVGPKEGKGPLRLFFDNIIEDEMWGEKSWEKAESKLIRETFSKVLQKGNKTSQEIDYVISGDLLNQCIAANFGLRESDVPFFGVYGACSTIAESMSIGAMLVDGGFADNVVCITSSHFCSAEKQFRFPLELGTQRPPSAQWTVTGSGGVLISNDGSGPYITHITTGKIVDMGIKDANNMGAAMAPAAVDTIVTHFKDTGFTPESYDLILTGDLGAIGREICVELTREQGFNIENIYNDCGLMIYDREKQDTHAGGSGCGCAATVFAGFVYKKLMDGTLKNVLFVATGALLSPVSTQQGESIPSIAHAISITTSPERLEHHHHHH	not soluble
